Several values for one entry are separate records, joined by “and”; a condition that tells them apart may be missing. Identical values can stand only once.

In test [1] the target is T1, Rhesus D antigen on RhD-positive human red blood cells (human, UniProt Q02161 2-417).
T1 sequence (looked up): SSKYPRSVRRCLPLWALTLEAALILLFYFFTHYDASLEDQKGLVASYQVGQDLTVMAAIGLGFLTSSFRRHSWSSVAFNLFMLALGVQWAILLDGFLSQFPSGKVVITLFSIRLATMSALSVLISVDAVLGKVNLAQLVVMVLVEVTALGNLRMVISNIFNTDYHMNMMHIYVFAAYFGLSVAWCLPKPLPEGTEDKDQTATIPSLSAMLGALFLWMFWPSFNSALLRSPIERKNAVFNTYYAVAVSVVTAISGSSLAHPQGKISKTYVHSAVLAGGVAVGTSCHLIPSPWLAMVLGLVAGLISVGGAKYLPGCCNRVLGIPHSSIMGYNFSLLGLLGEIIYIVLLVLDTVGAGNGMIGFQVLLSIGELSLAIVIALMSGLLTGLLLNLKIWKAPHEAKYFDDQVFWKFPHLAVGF
The experiment in a line: cell-based or functional assay.

Test [2] has as its target T1, Rhesus D antigen on RhD-positive human …. The experiment in a line: hemagglutination of bromelain-treated RhD-positive erythrocytes, Technicon Autoanalyzer, against the NIBSC polyclonal standard. The method, then: Briefly, bromelain-treated RhD positive red cells are incubated with various concentrations of anti-RhD antibodies. The cells are allowed to agglutinate over a period of time. The agglutinated cells are removed in the autoanalyzer and the rest of the erythrocytes are lysed using detergent. The optical density of the released hemoglobin is measured spectrophotometrically. The anti-D concentrations of the samples are calculated using a standard graph obtained from various concentrations of the Anti-D standard.

B1: anti-RhD monoclonal antibody RhD3 (antibody, human IgG3, kappa, V domains shown)
VH: QVTLKESGPVLVKPTETLTLTCTVSGFSLNNARMGVSWIRQPPGKALEWLAHIFSNDEKSYSTSLKSRLTISKDTSKSQVFLTMTNMDPVDTATYYCARTPITMVRGAIRLYYYYYMDVWGKGTTVTVSS
VL: DIQVTQSPSSLSASVGDRVTINCRASQSIGTYLNWYQQKPGKAPNLLIYAASSLQSGVPSRFSGSGSGTDFTLTISSLQPEDFATYYCQQTYSTPTWTFGRGTKVEIKR
As to B1, in test [1], the “ADCC EC50 (ng of Active Ab/ml), Average” value is 0.3 ng of Active Ab/ml and 0.2 ng of Active Ab/ml; the “ADCC EC50 (ng of Active Ab/ml), Experiment 1” value (shortened to “ADCC EC50 … Experiment 1”) is 0.2 ng of Active Ab/ml and 0.1 ng of Active Ab/ml; the “ADCC EC50 (ng of Active Ab/ml), Experiment 2” value (from here on “ADCC EC50 … Experiment 2”) is 0.3 ng of Active Ab/ml and 0.2 ng of Active Ab/ml.

B2: anti-RhD monoclonal antibody RhD1 (antibody, human IgG1, lambda)
heavy: not shown
light: QSALTQPASVSGSPGQSITISCSGSSSDVGGYKYVSWYQQHPGKAPQLMIYDVNNRPSGVSNRFSGSKSGNTASLTISGLQAEDEADYYCSSYTSSSTRVFGGGTKLTVLGQPKAAPSVTLFPPSSEELQANKATLVCLISDFYPGAVTVAWKADSSPVKAGVETTTPSKQSNNKYAASSYLSLTPEQWKSHKSYSCQVTHEGSTVEKTVAPTECS
For the molecule B2, in test [1], the “ADCC EC50 (ng of Active Ab/ml), Average” value is 1.1 ng of Active Ab/ml and 0.7 ng of Active Ab/ml; the “ADCC EC50 … Experiment 1” value is 0.7 ng of Active Ab/ml and 0.4 ng of Active Ab/ml; the “ADCC EC50 … Experiment 2” value is 1.5 ng of Active Ab/ml and 0.9 ng of Active Ab/ml.

B3: RhD4 (IgG3 variant of RhD1: RhD1V3C heavy chain and RhD1 light chain) (antibody)
heavy: QVQLVQSGAEVKKPGSSVKVSCKASGGIFRTYAISWVRQAPGQGLEWMGGIIPMFGTVNYAQKFQGRVTISADKSTSTAYMELSRLRSEDTAVYYCARPPSGGCGGDCSRRGYYYAMDVWGQGTTITVSSASTKGPSVFPLAPCSRSTSGGTAALGCLVKDYFPEPVTVSWNSGALTSGVHTFPAVLQSSGLYSLSSVVTVPSSSLGTQTYTCNVNHKPSNTKVDKRVELKTPLGDTTHTCPRCPEPKSCDTPPPCPRCPEPKSCDTPPPCPRCPEPKSCDTPPPCPRCPAPELLGGPSVFLFPPKPKDTLMISRTPEVTCVVVDVSHEDPEVQFKWYVDGVEVHNAKTKPREEQFNSTFRVVSVLTVLHQDWLNGKEYKCKVSNKALPAPIEKTISKTKGQPREPQVYTLPPSREEMTKNQVSLTCLVKGFYPSDIAVEWESSGQPENNYNTTPPMLDSDGSFFLYSKLTVDKSRWQQGNIFSCSVMHEALHNRFTQKSLSLSPGK
light: B2 light
notes: IgG3, lambda chimera; The limits were converted from the nucleotide limits: variable region nt 58-448, constant region from nt 449; The NheI site was made by silent mutations only
As to B3, the “Agglutination Titer (µg of Active Ab per mg of Protein)” value in test [2] was 303 µg of Active Ab per mg of Protein. Also, in test [1], the “ADCC EC50 (ng of Active Ab/ml), Average” value was 0.3 ng of Active Ab/ml; the “ADCC EC50 … Experiment 1” value is 0.1 ng of Active Ab/ml; the “ADCC EC50 … Experiment 2” value is 0.5 ng of Active Ab/ml.

(Values after patent publication US20120027769A1 (BHARAT SERUMS AND VACCINES, published 2012).)
